The values that follow come from patent publication US11020478B2, “Methods for modulating angiogenesis of cancers refractory to anti-VEGF treatment” (INIS BIOTECH LLC, priority 2013, dated 2021).

Changes are numbered by the printed parent chain.

For one assay, the system named is HUVEC. The experiment in a line: Binding of 488-Gal1 to ECs (flow cytometry). The class given is cell-based, human. (In general: A flow cytometer gives signals particle by particle.)
Another assay has as its system HUVEC migration. Briefly: EC migration assay (HUVEC). The class given is cell-based, human. Further details: inhibitory activity in Gal1-induced cell migration: dose or concentration left out as unconfirmed. The method, then: (§1) Cells were incubated at 37° C. for periods ranging from 0 to 24 h and were visualized by phase-contrast microscopy. Capillary-like tubular structures were scored by counting the number of tubules (closed areas) per well in a phase-contrast microscope (Nikon E-100). For migration assays, ECs (4×10^4/well) transfected or not with specific siRNA were resuspended in M199 medium supplemented with 1% FCS. Cells were placed into the top chamber of the insert while the bottom well was filled with Gal1 or VEGF-A in the absence or presence of the above mentioned stimuli. After 24 hours, inserts were stained with crystal violet (Sigma) and analyzed in an inverted microscope. For each filter, 4 images were obtained and cells were counted with ImageJ software v1.46r (NIH). […] After 24 hours, cells were incubated in the presence of 0.8 μCi [^3H]-thymidine (NEN Dupont). Cells were then harvested and radioactivity was measured in a 1414 Liquid Scintillation Counter (Perkin Elmer). Tumor-associated ECs were identified by flow cytometry using Alexa Fluor 647-conjugated anti-CD34 (RAM34; eBioscience) and FITC-conjugated anti-CD45 (J33; Immunotech). Microvessel density (MVD) was determined by counting the number of CD31^+ microvessels present in 10 mm^2. Ten random 400× fields were counted.

The test system of a further assay is HUVEC tube formation. Briefly: Capillary-like tube formation on Matrigel (HUVEC). The class given is cell-based, human. As to conditions: for tube formation induced by Gal1 / inhibitory activity in Gal1-induced formation of tubular structures (tubulogenesis): HUVEC. The method, then: as §1
Another assay deals with ECs. The experiment in a line: EC proliferation assay ([3H]-thymidine). The class given is cell-based, human. The method, then: as §1
A further assay deals with T1, rhVEGFR2 (Homo sapiens, UniProt P35968).
T1 construct: the recombinant extracellular domain of VEGFR2 expressed in human cells (Sino Biological Inc.); purchased Sino Biological Inc; host or cells: human cells
Briefly: FRET-based fluorescence spectroscopy, Gal1 binding to rhVEGFR2. To be noted: 594-Gal1 added to 0.5 μM 488-VEGFR2, 25° C. The method, then: Association between rhVEGFR2 and Gal1 was studied by a FRET-based fluorescence spectroscopy approach. NHS-activated fluorophores DyLight 488 (DL488, FRET donor) and DyLight 594 (DL594, FRET acceptor) were purchased from Thermo Scientific. For labeling, 4 mg rhGal1 and 100 μg of the recombinant extracellular domain of VEGFR2 expressed in human cells (Sino Biological Inc.) were modified with 200 μg of DL594 and 50 μg of DL488, respectively. Labeling was carried out in PBS buffer in the presence of 5 mM dithiothreitol (DTT) for 1 hour at room temperature following manufacturer's recommended protocol (Thermo Scientific). Labeled rhGal1 was purified by size exclusion chromatography using a Superdex-75 column (GE Life Sciences) generated in PBS containing 5 mM DTT and concentrated up to 200 μM using Centricon tubes (Millipore). Labeled VEGFR2 was dialyzed for 48 hours against PBS using a homemade microdialyzer. Fluorescence spectra were measured in a JASCO FP-6500 spectrofluorometer endowed with a Peltier effect thermostatized cell holder. A 4×4 mm fluorescence cell was employed. All binding assays were carried out at 25° C. in PBS buffer with the addition of 5 mM DTT. Excitation wavelength was set to 493 nm, with a bandpass of 1 nm. Emission spectra were recorded from 500 to 680 nm, using a bandpass of 3 nm. […] Fluorescence intensity at 518 nm was corrected for dilution and inner filter effects.

Another assay concerns the target T2, human recombinant Gal-1 (Homo sapiens, UniProt P09382).
T2 construct: made in house
The experiment in a line: Affinity assay (SPR) of fully human anti-Gal1 monoclonal antibodies. The class given is binding. To be noted: for Ka: kinetics model of interaction adjustment 1:1, BIAEvaluation 3.0. An excerpt: Also conducted was an affinity assay (SPR) for the newly developed fully human anti-Gal1 monoclonal antibodies. In order to characterize affinities of the new anti-Gal-1 monoclonal antibodies, dose-response (RU) curves were collected of the interactions between the monoclonal antibodies and human recombinant Gal-1 (FIG. 14A and FIG. 14B).
By using the BIAEvaluation 3.0 software in a kinetics model of interaction adjustment 1:1, kinetic parameters, constants of dissociation (Kd) and affinity (Ka) were calculated.

For assay [1], the system named is Gal1 peptides with the consensus motif MAADGDF. Briefly: PEPperMAP Conformational Epitope Mapping Analysis. The class given is binding. As to conditions: antibody 10 μg/mL; all three peptide lengths. The method, then: Epitope mapping: In order to determine the specific conformational epitopes recognized by the new anti-Gal1 antibodies, a PEPperMAP® Conformational Epitope Mapping Analysis was performed.

T2 sequence (P09382 whole entry): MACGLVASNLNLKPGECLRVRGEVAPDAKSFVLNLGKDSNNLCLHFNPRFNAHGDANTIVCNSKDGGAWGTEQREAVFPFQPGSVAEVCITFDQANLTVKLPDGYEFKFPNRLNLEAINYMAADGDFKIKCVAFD
T1 sequence (P35968 20-764 limits assumed): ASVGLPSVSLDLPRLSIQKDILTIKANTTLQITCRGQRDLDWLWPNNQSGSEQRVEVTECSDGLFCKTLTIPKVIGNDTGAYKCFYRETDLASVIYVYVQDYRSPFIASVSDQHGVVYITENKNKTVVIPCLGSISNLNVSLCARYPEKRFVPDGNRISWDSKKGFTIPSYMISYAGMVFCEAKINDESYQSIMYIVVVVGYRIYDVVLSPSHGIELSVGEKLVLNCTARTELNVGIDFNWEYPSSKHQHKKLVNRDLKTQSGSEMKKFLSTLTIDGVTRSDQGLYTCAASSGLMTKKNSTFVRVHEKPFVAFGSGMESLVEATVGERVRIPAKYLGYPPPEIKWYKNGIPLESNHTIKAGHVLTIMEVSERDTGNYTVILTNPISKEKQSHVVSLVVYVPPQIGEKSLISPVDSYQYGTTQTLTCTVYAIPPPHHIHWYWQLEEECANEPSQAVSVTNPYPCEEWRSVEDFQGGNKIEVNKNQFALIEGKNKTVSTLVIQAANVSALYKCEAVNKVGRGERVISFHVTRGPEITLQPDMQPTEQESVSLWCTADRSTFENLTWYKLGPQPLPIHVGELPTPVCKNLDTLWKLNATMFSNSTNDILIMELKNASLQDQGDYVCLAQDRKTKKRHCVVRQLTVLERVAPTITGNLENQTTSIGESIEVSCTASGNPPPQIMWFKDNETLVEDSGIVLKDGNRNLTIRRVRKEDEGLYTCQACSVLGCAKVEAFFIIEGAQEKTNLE

Consider `CC(=O)N[C@H]1[C@@H](OCc2ccccc2)O[C@H](CO)[C@H](O)[C@@H]1O` [benzyl-α-GalNAc], for which the “Gal1 binding to ECs in presence of inhibitor” value in the assay with HUVEC is “only partially inhibitory”.

As to `OC[C@H]1O[C@@H](O[C@H]2[C@H](O)[C@@H](O)C(O)O[C@@H]2CO)[C@H](O)[C@@H](O)[C@H]1O` (stereo partly drawn) [lactose, reference compound], the “EC migration induced by Gal1” value with HUVEC migration is recorded as “almost completely prevented”. For the same molecule, the “tube formation induced by Gal1” value in the assay on HUVEC tube formation is listed as “almost completely prevented”. In addition, the “EC proliferation induced by Gal1” value in the assay with ECs was “almost completely prevented”.

With `O[C@H]1[C@H]2[C@H](O)CCCN2C[C@H]1O` [swainsonine, reference compound], in the assay with HUVEC migration, the “EC migration induced by Gal1” value is given as “almost completely prevented”. For the same molecule, the “Gal1 binding to ECs in presence of inhibitor” value in the assay on HUVEC is given as “almost completely abrogated”. Further, the “tube formation induced by Gal1” value in the assay on HUVEC tube formation is listed as “almost completely prevented”. Further, in the assay with ECs, the “EC proliferation induced by Gal1” value is given as “almost completely prevented”.

Take “Gal1: recombinant Galectin-1, glycan-binding protein (SEQ ID NO: 2)”: the “dissociation constant (Kd)” value with rhVEGFR2 is “low micromolar range”.

With “Gal1^N46D: Gal1 mutant lacking carbohydrate-binding activity [reference compound]”, the “binding to ECs” value in the assay on HUVEC (any of the concentrations tested) is on record as “no binding”. Further, the “impact on EC response” value in the assay with HUVEC tube formation is “no impact”.

B1: Clone 21: fully human anti-Gal1 monoclonal antibody (IgG1) from scFv library; VH SEQ ID NO: 15, VK SEQ ID NO: 19 (antibody, V domains shown)
VH: EVQLLESGGGLVQPGGSLRLSCAASGFTFSSYAMSWVRQAPGKGLEWVSEIGRVGVNTLYADSVKGRFTISRDNSKNTLYLQMNSLRAEDTAVYYCAKKATQFDYWGQGTLVTVSS
VL: DIQMTQSPSSLSASVGDRVTITCRASQSISSYLNWYQQKPGKAPKLLIYRASRLQSGVPSRFSGSGSGTDFTLTISSLQPEDFATYYCQQTIGPPDTFGQGTKVEIKR
modifications: IgG1 format
With B1, in the assay with human recombinant Gal-1, the “interaction with human recombinant Gal1” value is reported as “high specific interactions” and the Ka is 649000 M⁻¹. For the same molecule, in assay [1], the “binding activity against epitope-like spots formed by adjacent peptides with consensus motif MAADGDF” value is reported as “moderate to high binding activity”. The “inhibitory activity in Gal1-induced cell migration” value in the assay with HUVEC migration is on record as “significantly blocked”. In addition, the “inhibitory activity in Gal1-induced formation of tubular structures (tubulogenesis)” value with HUVEC tube formation is “significantly blocked”.

B2: Clone 42: fully human anti-Gal1 monoclonal antibody (IgG1) from scFv library; VH SEQ ID NO: 23, VK SEQ ID NO: 27 (antibody, V domains shown)
VH: EVQLLESGGGLVQPGGSLRLSCAASGFTFSSYAMSWVRQAPGKGLEWVSGISGSGDYTSYADSVKGRFTISRDNSKNTLYLQMNSLRAEDTAVYYCAKGYGAFDYWGQGTLVTVSS
VL: B1 VL with R50G, R53W, T91S, I92A, G93N, P94Y, D96S
modifications: IgG1 format
As for B2, in the assay with human recombinant Gal-1, the “interaction with human recombinant Gal1” value was “high specific interactions” and the Ka is 7.63e+06 M⁻¹. In addition, the “binding activity against epitope-like spots formed by adjacent peptides with consensus motif MAADGDF” value in assay [1] is listed as “higher binding activity”. For the same molecule, the “inhibitory activity in Gal1-induced cell migration” value in the assay with HUVEC migration was “significantly blocked”. For the same molecule, the “inhibitory activity in Gal1-induced formation of tubular structures (tubulogenesis)” value in the assay with HUVEC tube formation is listed as “significantly blocked”.
